From patent publication US12036234B2, “Heparin conjugated to collagen-binding peptides for targeting to biological and synthetic tissues” (Northwestern University, priority 2017, dated 2024)
Ends that are not written are not given here.

Target: collagen IV (Mus musculus, UniProt P02463+P08122)
Experiment: Cy5 conjugate binding to surface coated collagen IV
Conditions: 30 mg/ml, improved batch, 24 hour incubation
Description: Heparin(Cy5)-CBP conjugates were synthesized using N-(3-dimethylaminopropyl)-N′-ethylcarbodiimide/N-hydroxyl succinimide (EDC/NHS) chemistry (1,2). Briefly, 1 mM of heparin sodium salt or fluorescently pre-conjugated Heparin(Cyanine5) (Hep-Cy5) mixed with 120 mM EDC and 60 mM NHS in 2-(N-morpholino) ethanesulfonic acid (MES) buffer at pH 6.5. This was rocked for 4 hours at 20° C. 1 mM of […] binding peptide (CQDSETRTFY (SEQ ID NO:1), CBP) or a scrambled sequence (CDEFQRSTTY (SEQ ID NO:2), CBPi) was added, and allowed to rock overnight at 4° C. This mixture was dialyzed to exclude molecules […] 3.5 kDa and lyophilized to dry. Four molecular assays were used to assess the functional synthesis of these conjugates. An Ellman's assay is capable of colormetrically labeling the thiol containing cysteine amino acid, and was used to assess the cysteine molar quantity of the whole conjugate (3). A dimethylmethylene blue assay was used to stain the glycosaminoglycan present in heparin conjugates to determine the heparin molar quantity (4). A colormetric kit was used to assess clotting via factor Xa (5). Effective CBP related binding of the conjugate was measured via the Cy5 fluorophore, using a 24 hour incubation with surface coated collagen IV (6). […]

collagen IV, sequence (P02463 173-1669): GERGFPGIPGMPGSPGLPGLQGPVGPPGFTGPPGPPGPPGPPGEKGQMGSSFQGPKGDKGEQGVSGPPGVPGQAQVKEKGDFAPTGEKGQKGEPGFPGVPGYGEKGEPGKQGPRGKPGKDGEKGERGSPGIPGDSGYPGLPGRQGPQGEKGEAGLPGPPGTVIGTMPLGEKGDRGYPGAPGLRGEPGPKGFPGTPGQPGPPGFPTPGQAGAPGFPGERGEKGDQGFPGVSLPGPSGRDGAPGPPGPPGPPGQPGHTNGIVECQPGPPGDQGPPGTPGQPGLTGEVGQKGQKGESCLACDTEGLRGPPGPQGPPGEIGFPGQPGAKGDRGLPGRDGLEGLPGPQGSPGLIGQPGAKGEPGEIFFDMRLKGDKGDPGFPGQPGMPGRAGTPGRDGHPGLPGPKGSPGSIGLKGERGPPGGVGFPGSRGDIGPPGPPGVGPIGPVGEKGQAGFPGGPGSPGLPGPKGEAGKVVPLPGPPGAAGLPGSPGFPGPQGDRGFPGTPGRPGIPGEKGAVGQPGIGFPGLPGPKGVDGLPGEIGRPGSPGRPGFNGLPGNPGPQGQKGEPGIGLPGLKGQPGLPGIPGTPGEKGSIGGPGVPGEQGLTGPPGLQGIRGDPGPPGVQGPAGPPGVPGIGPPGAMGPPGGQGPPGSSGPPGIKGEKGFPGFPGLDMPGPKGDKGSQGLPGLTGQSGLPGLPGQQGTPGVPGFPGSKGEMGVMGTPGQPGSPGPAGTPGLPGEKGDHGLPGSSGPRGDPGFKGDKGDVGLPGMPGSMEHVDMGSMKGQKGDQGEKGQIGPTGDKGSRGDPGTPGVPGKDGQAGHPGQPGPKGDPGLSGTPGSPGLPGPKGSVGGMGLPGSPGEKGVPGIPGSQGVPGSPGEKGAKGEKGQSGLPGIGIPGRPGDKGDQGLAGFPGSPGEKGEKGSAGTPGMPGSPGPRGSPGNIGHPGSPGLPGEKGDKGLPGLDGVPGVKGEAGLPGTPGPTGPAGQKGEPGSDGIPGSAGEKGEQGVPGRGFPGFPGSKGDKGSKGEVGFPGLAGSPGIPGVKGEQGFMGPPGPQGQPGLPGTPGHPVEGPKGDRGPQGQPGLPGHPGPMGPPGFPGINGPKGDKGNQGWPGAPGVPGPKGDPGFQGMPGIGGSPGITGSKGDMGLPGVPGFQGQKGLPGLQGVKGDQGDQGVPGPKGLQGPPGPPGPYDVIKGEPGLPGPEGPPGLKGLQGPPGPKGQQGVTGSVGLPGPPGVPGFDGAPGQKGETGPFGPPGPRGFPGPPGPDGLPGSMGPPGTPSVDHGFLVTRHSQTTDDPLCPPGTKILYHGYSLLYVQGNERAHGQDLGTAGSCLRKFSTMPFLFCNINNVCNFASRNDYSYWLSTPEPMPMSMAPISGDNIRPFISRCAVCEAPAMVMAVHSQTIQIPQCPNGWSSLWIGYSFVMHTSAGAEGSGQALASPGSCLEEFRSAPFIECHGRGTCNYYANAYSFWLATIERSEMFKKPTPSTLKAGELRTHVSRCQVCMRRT
collagen IV, sequence (P08122 184-1707): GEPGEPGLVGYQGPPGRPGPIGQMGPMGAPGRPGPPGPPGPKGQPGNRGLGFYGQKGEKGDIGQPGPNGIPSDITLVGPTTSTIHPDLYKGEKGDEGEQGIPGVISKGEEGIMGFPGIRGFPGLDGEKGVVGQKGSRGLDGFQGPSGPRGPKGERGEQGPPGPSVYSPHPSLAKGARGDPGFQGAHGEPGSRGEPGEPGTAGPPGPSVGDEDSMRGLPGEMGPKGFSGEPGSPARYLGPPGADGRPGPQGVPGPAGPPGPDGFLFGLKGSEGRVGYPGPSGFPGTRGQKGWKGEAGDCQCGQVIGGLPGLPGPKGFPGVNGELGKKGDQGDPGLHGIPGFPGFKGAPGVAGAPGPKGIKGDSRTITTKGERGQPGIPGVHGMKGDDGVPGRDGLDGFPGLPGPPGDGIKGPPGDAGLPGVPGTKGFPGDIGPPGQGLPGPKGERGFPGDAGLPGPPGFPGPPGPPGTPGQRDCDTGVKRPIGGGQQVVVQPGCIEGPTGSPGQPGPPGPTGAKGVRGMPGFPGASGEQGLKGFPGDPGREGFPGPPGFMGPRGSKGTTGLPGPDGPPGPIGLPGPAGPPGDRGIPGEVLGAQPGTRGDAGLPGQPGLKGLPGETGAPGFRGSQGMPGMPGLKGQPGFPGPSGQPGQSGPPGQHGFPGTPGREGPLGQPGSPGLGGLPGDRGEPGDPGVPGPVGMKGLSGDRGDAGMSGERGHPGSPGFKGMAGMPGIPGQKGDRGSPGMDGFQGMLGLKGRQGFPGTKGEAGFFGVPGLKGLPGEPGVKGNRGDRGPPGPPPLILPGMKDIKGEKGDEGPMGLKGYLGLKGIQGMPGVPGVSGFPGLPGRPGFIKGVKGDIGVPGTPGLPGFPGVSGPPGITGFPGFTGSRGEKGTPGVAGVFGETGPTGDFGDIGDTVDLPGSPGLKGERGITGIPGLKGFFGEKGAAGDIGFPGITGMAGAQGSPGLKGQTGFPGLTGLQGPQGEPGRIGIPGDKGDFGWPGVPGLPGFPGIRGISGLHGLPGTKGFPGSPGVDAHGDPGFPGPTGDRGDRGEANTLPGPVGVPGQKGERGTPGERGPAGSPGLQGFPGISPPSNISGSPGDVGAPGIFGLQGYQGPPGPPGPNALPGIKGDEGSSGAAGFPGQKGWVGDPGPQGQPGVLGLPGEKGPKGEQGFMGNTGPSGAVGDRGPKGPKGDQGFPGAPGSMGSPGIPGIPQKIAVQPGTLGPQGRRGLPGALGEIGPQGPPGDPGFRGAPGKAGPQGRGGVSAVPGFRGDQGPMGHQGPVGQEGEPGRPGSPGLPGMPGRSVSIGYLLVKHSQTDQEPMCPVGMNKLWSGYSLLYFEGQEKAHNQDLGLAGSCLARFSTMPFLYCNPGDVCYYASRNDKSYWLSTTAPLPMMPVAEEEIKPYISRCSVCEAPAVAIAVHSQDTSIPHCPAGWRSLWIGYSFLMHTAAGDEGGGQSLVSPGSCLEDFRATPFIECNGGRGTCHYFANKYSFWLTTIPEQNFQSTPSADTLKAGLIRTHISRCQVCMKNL

binding to collagen IV relative to scrambled CBPi control: four times more
Substance: CBP-Hep(Cy5): Cy5-labelled heparin conjugated with CBP by EDC/NHS chemistry (CQDSETRTFY; also: conjugated to Cy5-labelled heparin by EDC/NHS, place not given here)
